Here are results for six molecules from patent publication US20200131274A1 (CRESCENDO BIOLOGICS, published 2020).

In test [1] the target is T1, cynomolgus PSMA, full-length, on CHO cells (cynomolgus, UniProt A0A2K5VNZ0 1-750). As to the kind of experiment: cell-based or functional assay.
The target of test [2] is T2, recombinant human PSMA (R&D, cat. no. 4234-ZN) (human, UniProt Q04609 44-750).
T2 construct: Bought protein; also called rhPSMA; Recombinant PMSA
The test is described as follows: Octet RED384 BLI, PSMA on sensor, VH purified from periplasmic extracts.

In test [3] the target is T3, human prostate specific membrane antigen (PSMA), full-length, on cells (human, UniProt Q04609 1-750). The test is described as follows: cell-based or functional assay.
T3 sequence (Q04609 whole entry): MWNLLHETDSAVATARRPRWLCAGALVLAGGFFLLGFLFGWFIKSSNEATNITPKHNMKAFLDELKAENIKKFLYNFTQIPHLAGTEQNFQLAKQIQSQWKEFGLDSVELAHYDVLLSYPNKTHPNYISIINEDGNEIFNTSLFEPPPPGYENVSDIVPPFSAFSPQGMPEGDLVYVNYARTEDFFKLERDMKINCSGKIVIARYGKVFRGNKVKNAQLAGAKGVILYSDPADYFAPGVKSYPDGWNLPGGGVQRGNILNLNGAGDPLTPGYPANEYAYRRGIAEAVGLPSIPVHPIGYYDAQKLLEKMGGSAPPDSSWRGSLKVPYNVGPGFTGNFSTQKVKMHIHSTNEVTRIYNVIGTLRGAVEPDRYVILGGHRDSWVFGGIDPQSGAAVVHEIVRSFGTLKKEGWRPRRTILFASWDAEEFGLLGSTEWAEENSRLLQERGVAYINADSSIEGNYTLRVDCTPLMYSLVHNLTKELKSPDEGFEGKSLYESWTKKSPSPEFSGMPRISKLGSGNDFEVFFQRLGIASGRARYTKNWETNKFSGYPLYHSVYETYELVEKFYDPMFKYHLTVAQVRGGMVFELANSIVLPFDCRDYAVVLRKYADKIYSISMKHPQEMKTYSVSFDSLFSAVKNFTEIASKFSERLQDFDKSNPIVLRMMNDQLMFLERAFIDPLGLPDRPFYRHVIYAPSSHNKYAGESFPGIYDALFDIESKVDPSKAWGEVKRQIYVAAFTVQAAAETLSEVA
Test [4] deals with T1, cynomolgus PSMA, full-length, on CHO …. As to the kind of experiment: cell-based or functional assay. The source holds these as a separate data set.
In test [5] the target is T3, human prostate specific membrane …. The test is described as follows: FMAT direct cell binding, DU145 PSMA cells.
Test [6] shares this target. The test is described as follows: FMAT direct cell binding, CHO human PSMA cells.
The target is the same in test [7]. As to the kind of experiment: FMAT cell binding, huPSMA CHO 1A10 cells, after 4 days in human serum at 37 C.
The target of test [8] is T1, cynomolgus PSMA, full-length, on CHO …. As to the kind of experiment: FMAT direct binding on CHO cells expressing cynomolgus PSMA, VH not heated (4 °C, day 0), FL2 median mean fluorescence.
The target of test [9] is T3, human prostate specific membrane …. As to the kind of experiment: FMAT direct cell binding, LNCap cells.
For test [10] the target is unchanged. The test is described as follows: FMAT cell binding, huPSMA CHO 1A10 cells, after 0 days in human serum at 37 C.
For test [11] the target is unchanged. As to the kind of experiment: cell-based or functional assay. This is another data set of the same source.
Test [12] addresses T1, cynomolgus PSMA, full-length, on CHO …. As to the kind of experiment: cell-based or functional assay. This is another data set of the same source.
Test [13] shares this target. As to the kind of experiment: FMAT Mirrorball direct cell binding, purified His-tagged VH titrated on CHO cells expressing cynomolgus PSMA, FL2 median binding signal [panel cynoPSMA-CHO binding].
Test [14] has as its target T2, recombinant human PSMA (R&D, cat. no. …). As to the kind of experiment: Octet RED384 BLI, PSMA amine-coupled to sensor, 1:1 model.
Test [15] concerns the target T3, human prostate specific membrane …. As to the kind of experiment: FMAT cell binding, huPSMA CHO 1A10 cells, after 1 day in human serum at 37 C.
Test [16] addresses T1, cynomolgus PSMA, full-length, on CHO …. As to the kind of experiment: FMAT direct binding on CHO cells expressing cynomolgus PSMA, VH kept 8 days at 40 °C, FL2 median mean fluorescence.
Test [17] deals with T3, human prostate specific membrane …. As to the kind of experiment: FMAT cell binding, huPSMA CHO 1A10 cells, after 7 days in human serum at 37 C.
In test [18] the target is T2, recombinant human PSMA (R&D, cat. no. …). As to the kind of experiment: Octet RED384 BLI, PSMA on sensor, VH series from 0.375 ug/ml.
For test [19], the target named is T1, cynomolgus PSMA, full-length, on CHO …. The test is described as follows: FMAT direct cell binding, CHO cyno PSMA cells.
For test [20], the target named is T3, human prostate specific membrane …. The test is described as follows: cell-based or functional assay. The source holds these as a separate data set.
Test [21] deals with T2, recombinant human PSMA (R&D, cat. no. …). The test is described as follows: HTRF binding assay: His-Myc tagged VH, 3 nM biotinylated PSMA, streptavidin cryptate and anti-Myc Alexa Fluor 647; VH kept 0-7 days at 37 °C in cynomolgus monkey serum; Delta F% binding signal.
Test [22] concerns the target T3, human prostate specific membrane …. As to the kind of experiment: FMAT Mirrorball direct cell binding, purified His-tagged VH titrated on CHO cells expressing human PSMA, FL2 median binding signal [panel huPSMA-CHO binding].
The target is the same in test [23]. As to the kind of experiment: FMAT Mirrorball direct cell binding, purified His-tagged VH titrated on LNCap cells, FL2 median binding signal [panel LNCap cell binding].
The target is the same in test [24]. As to the kind of experiment: FMAT cell binding, huPSMA CHO 1A10 cells, after 0 days in human serum at 37 C. The source holds these as a separate data set.
Test [25] has as its target T2, recombinant human PSMA (R&D, cat. no. …). The test is described as follows: Octet RED384 BLI, PSMA on sensor, Table 21 c; Table 21 part c), not part b) (0.85 nM for clone 1.8).
For test [26], the target named is T3, human prostate specific membrane …. The test is described as follows: FMAT cell binding, huPSMA CHO 1A10 cells, after 7 days in human serum at 37 C. This is another data set of the same source.
The target is the same in test [27]. As to the kind of experiment: FMAT cell binding, huPSMA CHO 1A10 cells, after 4 days in human serum at 37 C. The source holds these as a separate data set.
In test [28] the target is T2, recombinant human PSMA (R&D, cat. no. …). As to the kind of experiment: Octet RED384 BLI, PSMA on sensor, Table 21 b.
Test [29] has the same target. As to the kind of experiment: Octet RED384 BLI, PSMA on sensor, Table 21 c.
For test [30] the target is unchanged. The test is described as follows: Octet RED384 BLI, PSMA on sensor, VH series from 0.375 ug/ml. The source holds these as a separate data set.
The target of test [31] is T3, human prostate specific membrane …. The test is described as follows: FMAT cell binding, huPSMA CHO 1A10 cells, after 1 day in human serum at 37 C. This is another data set of the same source.

Where a chain is given by its changes, count along the chain named. Where “and” joins values, the source holds several entries; their conditions need not be identical. Equal entries are not always repeated.

T2 sequence (Q04609 44-750 limits assumed): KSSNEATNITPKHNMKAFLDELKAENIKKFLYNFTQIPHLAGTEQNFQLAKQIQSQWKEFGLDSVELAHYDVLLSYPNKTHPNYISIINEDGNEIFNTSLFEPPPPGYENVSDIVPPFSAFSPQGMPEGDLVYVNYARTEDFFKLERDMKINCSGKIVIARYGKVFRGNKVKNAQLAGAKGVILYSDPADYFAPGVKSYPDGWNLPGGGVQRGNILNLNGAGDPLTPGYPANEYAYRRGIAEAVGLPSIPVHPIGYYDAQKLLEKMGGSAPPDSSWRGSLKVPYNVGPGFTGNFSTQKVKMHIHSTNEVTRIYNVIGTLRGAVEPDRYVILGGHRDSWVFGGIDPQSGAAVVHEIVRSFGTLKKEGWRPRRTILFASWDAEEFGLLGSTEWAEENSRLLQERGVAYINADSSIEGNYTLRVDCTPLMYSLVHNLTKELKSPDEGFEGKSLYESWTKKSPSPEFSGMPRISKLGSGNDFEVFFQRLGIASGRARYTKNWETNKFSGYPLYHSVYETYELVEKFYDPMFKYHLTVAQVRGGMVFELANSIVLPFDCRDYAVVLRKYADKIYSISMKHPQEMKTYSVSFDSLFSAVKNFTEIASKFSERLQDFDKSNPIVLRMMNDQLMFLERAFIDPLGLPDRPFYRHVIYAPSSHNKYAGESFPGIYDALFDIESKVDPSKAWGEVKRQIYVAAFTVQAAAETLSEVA

B1: single VH domain antibody 5.1 (VHH)
VHH: QVQLVESGGGVVQPGRSLRLSCAASGFTFNNYGMHWVRQAPGKGLEWVAIISYDGNTKYYTDSVKGRFTISRDNSKNTLYLQMNSLRVEDTAVYYCAKGLWPSDVWGQGTTVTVSS
notes: Human single VH domain antibody (Humabody); purified via the C-terminal His-tag, residues not tied
As to B1, the “EC50 (read off the curve): pHrodo Green internalisation signal FL2, CHO cells expressing cynomolgus PSMA” value in test [1] was roughly 2e-09 M. In test [2], the Kd stood at 30 nM and the koff turned out to be 0.0091 s⁻¹.

B2: single VH domain antibody 2.1 (VHH)
VHH: EVQLVESGGGVVQPGRSLRLSCAASGFSFSGYGMHWVRQAPGKGLEWVAYISYDGSNKYYADSVKGRFTISRDNSKNTLYLQMNSLRAEDTAVYYCAKDPAWGLRLGESSSYDFDIWGQGTMVTVSS
notes: Human single VH domain antibody (Humabody); tested with a C-terminal His tag; 71-95; also called VH 2.1; VH2.1
On to B2, for which the “IC50 (read off the curve): His-ZAP saporin cell killing, human-PSMA CHO, % Control (Cell Titer-Glo)” value in test [3] is roughly 0.04 nM. In addition, the “IC50 (read off the curve): His-ZAP saporin cell killing, cyno-PSMA CHO, % Control (Cell Titer-Glo)” value in [4] was roughly 0.1 nM. Also, the EC50 in [5] was found to be 0.23 nM; in test [6] it was 0.11 nM; in test [7], 0.26 nM; in [9] it was 0.0607 nM; in test [10] it was 0.249 nM; in test [15] it was 0.254 nM. The concentration giving a half-maximal response (EC50) in test [17] was found to be 0.301 nM; in test [19] it was 0.367 nM. The “EC50 (read off the curve)” value in test [8] is roughly 2 nM; in [13] it was roughly 0.6 nM; in test [16] it was roughly 2 nM; in test [21] it was roughly 1 nM. Besides, the “His-ZAP cell killing, human PSMA Average EC50” value in test [11] turned out to be 0.014 nM. The “His-ZAP cell killing, cyno PSMA EC50” value in [12] is 0.052 nM. In addition, the values for the dissociation constant Kd in test [14] and in test [18] were 1.64 nM and 0.32 nM, respectively. In addition, the values for the koff in test [14] and in test [18] were 0.000456 s⁻¹ and 0.000228 s⁻¹, respectively. The “pHrodo Green internalization assay, human PSMA Average EC50 (M)” value (from here on “pHrodo Green internalization assay”) in [20] amounted to 8e-10 M.

B3: single VH domain antibody 2.17 (VHH)
VHH: B2 VHH with G55A, S63N
notes: Human single VH domain antibody (Humabody); C-terminal His tag, residues not tied
As to B3, the EC50 in test [5] is 0.218 nM; in [6] it was 0.1 nM; in [7] it was 0.228 nM; in [9] it was 0.0113 nM; in test [10] it was 0.23 nM; in [15], 0.21 nM. The concentration for a half-maximal effect (EC50) in test [17] was found to be 0.238 nM; in [19], 0.308 nM. In addition, the “His-ZAP cell killing, human PSMA Average EC50” value in test [11] stood at 0.035 nM. Also, the “His-ZAP cell killing, cyno PSMA EC50” value in test [12] is 0.07 nM. In addition, the dissociation constant (Kd) in test [18] worked out at 0.76 nM. Further, in test [18], the koff amounted to 0.000726 s⁻¹. The “pHrodo Green internalization assay” value in test [20] is 8e-10 M.

B4: single VH domain antibody 2.22 (VHH)
VHH: B2 VHH with M34T, D62A, S63P, P100A
notes: as for B3
Take B4: the EC50 in test [5] came to 0.229 nM; in test [6], 0.123 nM; in test [7], 0.34 nM; in test [9], 0.153 nM; in test [10], 0.305 nM; in [15], 0.291 nM. The EC50 in [17] is 0.328 nM; in [19], 0.613 nM. Moreover, the “His-ZAP cell killing, human PSMA Average EC50” value in test [11] was determined as 0.069 nM. For the same molecule, in test [12], the “His-ZAP cell killing, cyno PSMA EC50” value stood at 0.18 nM. For the same molecule, the Kd in [18] stood at 2.62 nM. Moreover, in test [18], the koff was found to be 0.00244 s⁻¹. Also, the “pHrodo Green internalization assay” value in test [20] turned out to be 6.7e-10 M.

B5: single VH domain antibody 3.1 (VHH)
VHH: EVQLVESGGGVVQPGRSLRLSCAASGFPLISYGMHWVRQAPGKGLEWVAFMTYDGSNRYYADSVKGRFTISRDNSKNTLYLQMNSLRDEDTALYYCARDRIVGGRVPDAFDIWGQGTMVTVSS
notes: Human single VH domain antibody (Humabody); C-terminal His tag, residues not tied; also called VH3.1
B5: the “EC50 (read off the curve)” value in [22], in [13] and in test [23] was roughly 2 nM each time. The Kd in test [14] worked out at 3.78 nM. The dissociation rate constant (koff) in test [14] worked out at 0.000452 s⁻¹.

B6: single VH domain antibody 1.8 (VHH)
VHH: EVQLLESGGGLVQPGGSLRLSCAASGFSFSSYAMSWVRQAPGKGLEWVSSIGENDGTTDYADSVKGRFTISRDNSKNTLYLQMNSLRVEDTAVYYCVKDGVHWGQGTLVTVSS
notes: Human single VH domain antibody (Humabody)
On to B6, for which the concentration giving a half-maximal response (EC50) was 0.409 nM and 0.17 nM in [24]; 0.0945 nM in test [5]; 0.103 nM in [6]; 0.147 nM in [9]; 0.542 nM and 0.27 nM in test [26]; 0.496 nM and 0.25 nM in test [27]. Moreover, the EC50 is 0.31 nM in test [19]; 0.486 nM and 0.22 nM in [31]. The Kd in test [25] was found to be 1.95 nM; in test [28] it was 0.85 nM; in [30] it was 1.95 nM. Besides, the “His-ZAP cell killing, human PSMA Average EC50” value in [11] was 0.026 nM and 0.04 nM. The “His-ZAP cell killing, cyno PSMA EC50” value in test [12] stood at 1.4 nM. The koff in [28] was 0.00068 s⁻¹; in test [29], 0.00104 s⁻¹; in test [30], 0.00104 s⁻¹. For the same molecule, the “pHrodo Green internalization assay” value in test [20] was 5e-10 M and 1.2e-09 M.
